Experimental data as given in patent US20240272170A1 (QUANTUM SI, published 2024).

Experiments:
[1] = target: T1, QP1165 after cleavage to N-terminal leucine (LKQRVWK); test: on-chip dynamic sequencing of QP1165, 500 nM PS1875 plus five recognizers, 11565 alignments
T1 peptide: LKQRVWK
Experimental: (§1) The semiconductor chip was placed in the sequencing device and a chip check was performed to test electronic circuit function and to optimize laser coupling alignment. The chip was then removed from the device socket and the chip was washed twice with 50 μL of 70% isopropanol, followed by four washes with 30 μL of wash buffer (50 mM MOPS pH 8.0, 60 mM potassium acetate, 50 mM glucose, 20 mM magnesium acetate, and surfactant mix) through a flow cell attached to the chip. A second chip check was then performed. The laser was then blocked via an integrated software-controlled shutter, peptide complex was added to a final concentration of 1-10 nM and mixed thoroughly, and the chip was incubated for 15 min. The chip was then washed six times with wash buffer, followed by addition of an imaging solution (wash buffer with 5 mM Trolox and an oxygen scavenging system). The laser was unblocked and the occupancy percentage (target 10-30%, Poisson distributed) was recorded by acquiring a photobleaching signal from a fluorophore attached to the peptide complex during 5 min of laser illumination. […] Data was recorded for 15 min. The laser was then blocked briefly and aminopeptidases were added to the sequencing reaction via the flow cell and mixed thoroughly (final concentration 2-8 μM PhTET2 and/or 20-80 μM PhTET3, as indicated according to the experiment). The laser was then unblocked, and data was recorded for 10 hours. For all runs, 30 μL of mineral oil was added to fluid reservoirs at each port of the flow cell to prevent evaporation during the run.

[2] = target: T2, QP1165 after cleavage to N-terminal isoleucine (IAFLKQRVWK); test: as above
T2 peptide: IAFLKQRVWK
Experimental: as §1

[3] = target: T2, QP1165 after cleavage to N-terminal …; test: on-chip dynamic sequencing of QP1165, PS2132 run, trace Aperture=376215
[4] = target: T1, QP1165 after cleavage to N-terminal …; test: on-chip dynamic sequencing of QP1165, PS2123 run, trace Aperture=1168773
[5] = target: T2, QP1165 after cleavage to N-terminal …; test: as above
[6] = target: T1, QP1165 after cleavage to N-terminal …; test: on-chip dynamic sequencing of QP1165, 500 nM PS1875 plus five recognizers, 3369 alignments
[7] = target: T2, QP1165 after cleavage to N-terminal …; test: as above
[8] = target: T1, QP1165 after cleavage to N-terminal …; test: on-chip dynamic sequencing of QP1165, PS2123 run, trace Aperture=501326
[9] = target: T2, QP1165 after cleavage to N-terminal …; test: as above
[10] = target: T1, QP1165 after cleavage to N-terminal …; test: on-chip dynamic sequencing of QP1165, 500 nM PS2132 plus five recognizers, 36192 alignments
[11] = target: T2, QP1165 after cleavage to N-terminal …; test: as above
[12] = target: T2, QP1165 after cleavage to N-terminal …; test: on-chip dynamic sequencing of QP1165, 500 nM PS2123 plus five recognizers, 62511 alignments
[13] = target: T1, QP1165 after cleavage to N-terminal …; test: on-chip dynamic sequencing of QP1165, PS1875 run, trace Aperture=1377116
Experimental: as §1

[14] = target: T1, QP1165 after cleavage to N-terminal …; test: on-chip dynamic sequencing of QP1165, 500 nM PS1875 plus five recognizers, 7305 alignments
[15] = target: T2, QP1165 after cleavage to N-terminal …; test: as above
[16] = target: T1, QP1165 after cleavage to N-terminal …; test: on-chip dynamic sequencing of QP1165, PS2121 run, trace Aperture=740473
[17] = target: T2, QP1165 after cleavage to N-terminal …; test: as above
[18] = target: T1, QP1165 after cleavage to N-terminal …; test: on-chip dynamic sequencing of QP1165, 500 nM PS2121 plus five recognizers, 15527 alignments
[19] = target: T2, QP1165 after cleavage to N-terminal …; test: as above
[20] = target: T2, QP1165 after cleavage to N-terminal …; test: on-chip dynamic sequencing of QP1165, PS1875 run, trace Aperture=1311609

IPD (interpulse duration) [1]: 17.1 s
PD (pulse duration) [1]: 0.59 s
IPD (interpulse duration) [2]: 8.79 s
PD (pulse duration) [2]: 1.01 s
PD of a recognition segment in an example trace [3]: 0.49 s
PD of a recognition segment in an example trace [4]: 0.39 s
PD of a recognition segment in an example trace [5]: 0.53 s
IPD (interpulse duration) [6]: 15.3 s
PD (pulse duration) [6]: 0.66 s
IPD (interpulse duration) [7]: 7.33 s
PD (pulse duration) [7]: 1.18 s
PD of a recognition segment in an example trace [8]: 0.39 s
PD of a recognition segment in an example trace [9]: 0.51 s
IPD (interpulse duration) [10]: 17.4 s
PD (pulse duration) [10]: 0.54 s
IPD (interpulse duration) [11]: 9.74 s
PD (pulse duration) [11]: 0.66 s
IPD (interpulse duration) [12]: 9.24 s
PD (pulse duration) [12]: 0.73 s
PD of a recognition segment in an example trace [13]: 0.68 s
IPD (interpulse duration) [14]: 15.4 s
PD (pulse duration) [14]: 0.65 s
IPD (interpulse duration) [15]: 8.02 s
PD (pulse duration) [15]: 1.15 s
PD of a recognition segment in an example trace [16]: 0.49 s
PD of a recognition segment in an example trace [17]: 0.5 s
IPD (interpulse duration) [18]: 16.6 s
PD (pulse duration) [18]: 0.63 s
IPD (interpulse duration) [19]: 8.64 s
PD (pulse duration) [19]: 0.7 s
PD of a recognition segment in an example trace [20]: 0.61 s
B1: PS1223 (designed binder)
single polypeptide, two PS961 units in tandem: MPTAASATESAIEDTPAPARPEVDGRTKPKRQPRYHVVLWDDDDHTYQYVVVMLRSLFGHPPSRGYRMAKEMDTQGRVIVLTTTREHAELKRDQIHAFGRDRLLARSKGSMKASIEAEEGSAGSAAGSGEFGSAGSAAGSGEFGSAGSAAGSGEFMPTAASATESAIEDTPAPARPEVDGRTKPKRQPRYHVVLWDDDDHTYQYVVVMLRSLFGHPPSRGYRMAKEMDTQGRVIVLTTTREHAELKRDQIHAFGRDRLLARSKGSMKASIEAEE
notes: dye-labelled recognizer for N-terminal L, I, V in the six-recognizer runs; also called PS1223 (LIV)
